The text below walks through data of the supplement of paper PMC10126150.

± gives the standard deviation of the averaged measurements.

The subject of this data set is ATP. As to the kind of experiment: switch fluorescence ratio, 500 uM ATP over buffer (Cy3 cluster intensity, sum of 5 cycles each) (fold (ratio)); higher = stronger signal-on switching upon ATP binding; sequences stand for … in TCGTCGGCAGCGTCAGATGTGTATAAGAGACAGTTTTTTTTTTTTTTTTTTTTTTTTT…TC. The note with it: aptamer strand: ATP DNA aptamer (quencher-CACCTGGGGGAGTATTGCGGAGGAAGG + anchor), 100 nM annealed; ATP concentration: 500 uM. The method, boiled down: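 Cy3-labelled switching-strand clusters on a modified Illumina MiSeq flow-cell were annealed to 100 nM quencher-labelled ATP aptamer and imaged first in selection buffer, then after 15 min with 500 uM ATP at 22 °C. NaOH stripping and re-annealing separated each of five buffer/ATP cycles, and clusters outside 100-1000 RFU were excluded. The fluorescence ratio sums target-cycle Cy3 intensity over buffer-cycle Cy3 intensity per cluster and averages it per switch-domain sequence.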
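Also: ATP exposure 15 min at 22 °C before imaging.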

With GATCTAGGGC, the switch fluorescence ratio was 1.02 ± 0.037.
Consider GTGGTTGTGC, for which the switch fluorescence ratio stood at 0.97 ± 0.035.
Consider TAATTGTTGC, for which the switch fluorescence ratio is 0.969 ± 0.016.
The result for GGGTTCTCAG reads 0.995 ± 0.024; that for CTCGCTGCGT, 1.024 ± 0.0082.
Take TGGGAATTGG: the switch fluorescence ratio is 0.981 ± 0.012.
Then GAACGGACAC, with 1.45 ± 0.015; and TTTAGCGGGG, with 1.01 ± 0.016.
The result for ATTGCGAATT reads 1.02 ± 0.022; that for CGTGAATTTT, 1 ± 0.037; that for TTAACGGTAG, 0.983 ± 0.038.
ATTATCAGCC: the switch fluorescence ratio was 1.022 ± 0.0041.
The result for TGGAGTTAGG reads 0.995 ± 0.013; that for AGTGTTGTTG, 0.9727 ± 0.0095; that for AGGGTGGCTT, 1.02 ± 0.088.
For the sequence CATGGCCTCT, the switch fluorescence ratio was determined as 0.987 ± 0.034.
As to TTAAATTTT, the switch fluorescence ratio came out at 1.01 ± 0.024.
Then GTGGTAATTG, with 0.972 ± 0.016; and GATTTGCTTT, with 0.98 ± 0.013; and GCCTGAAAAA, with 0.986 ± 0.033.
Then ACAGGATGTT, with 1.01 ± 0.027; and TGAGTTATTT, with 1.01 ± 0.012.
Then CGGGTAGGGC, with 1.01 ± 0.032.
Turning to AGCCGAGTGC, the switch fluorescence ratio worked out at 1.02 ± 0.06.
The result for TGGGGAAGCG reads 0.988 ± 0.011; that for TGGGGTTCAC, 0.998 ± 0.018.
On to GAAATGTCGG, for which the switch fluorescence ratio worked out at 1.02 ± 0.028.
Regarding TCGAGCATCA, the switch fluorescence ratio turned out to be 1.143 ± 0.01.
The result for TCTATGCTTA reads 1.01 ± 0.038.
Then TCATCCGTTT, with 1.13 ± 0.15.
Then GGGAGCTACA, with 1.02 ± 0.017.
Regarding TGGCGCACGG, the switch fluorescence ratio came out at 0.953 ± 0.017.
The result for GGGTTCGTGG reads 0.997 ± 0.031; that for AGCGTTGAAG, 0.997 ± 0.022; that for TCACGTTGTT, 0.981 ± 0.036.
The result for GGCCGATTTT reads 0.9813 ± 0.0042.
Then ATGATAAGTA, with 1.006 ± 0.0034; and GATTAATCTG, with 0.962 ± 0.015.
On to TAGCATTTTT, for which the switch fluorescence ratio came to 1.07 ± 0.14.
Consider GGGTTGGTTA, for which the switch fluorescence ratio was determined as 1 ± 0.04.
Then AGTAGGTAAA, with 1.03 ± 0.023; and GTTTAGCTGT, with 0.9948 ± 0.0021; and ACATGAGCGG, with 0.971 ± 0.019.
Take TTATCGTGTC: the switch fluorescence ratio is 1.02 ± 0.023.
Then TGATGGGGGT, with 1.04 ± 0.042; and TTAAGATGCT, with 0.997 ± 0.036.
Regarding GTTTTTGCGG, the switch fluorescence ratio is 0.9784 ± 0.0044.
In the case of CGTAATAGTC, the switch fluorescence ratio amounted to 1.81 ± 0.15.
AATCGGGTTT: the switch fluorescence ratio came out at 0.953 ± 0.02.
For the sequence GCTTTAAAAT, the switch fluorescence ratio amounted to 1.004 ± 0.0088.
For GATTACTTTG, the switch fluorescence ratio was 0.9562 ± 0.0039.
Take AATGGTGGGG: the switch fluorescence ratio turned out to be 0.9912 ± 0.0053.
The result for TATTACACTG reads 1.03 ± 0.033; that for TGCGTCCAAG, 1.02 ± 0.029.
The result for AAGCGGGAGG reads 1.02 ± 0.011; that for GAAGGCAGTG, 1 ± 0.011.
As to AGGCAAAAAT, the switch fluorescence ratio worked out at 1.008 ± 0.004.
Then TAAGATGACG, with 1.13 ± 0.05.
Then TCCAGATCAT, with 0.993 ± 0.018.
Regarding ATACCCTAGC, the switch fluorescence ratio stood at 1.09 ± 0.014.
Then CTGCGCAAGG, with 6.27 ± 0.014; and AAGCGTTAGC, with 1.01 ± 0.014.
Take ATACTTATAT: the switch fluorescence ratio was 1.038 ± 0.0097.
Then TATCGGCGAG, with 1.02 ± 0.046.
For the sequence TAGGGGAGCT, the switch fluorescence ratio is 0.974 ± 0.067.
Then GGGTTAATTT, with 1 ± 0.028; and GAATTGTTAG, with 0.972 ± 0.028.
Then CGGTTCGCCT, with 0.998 ± 0.016.
For AAAAATGCTT, the switch fluorescence ratio came out at 1.02 ± 0.066.
The result for GGGCCGTTGC reads 0.948 ± 0.029; that for AAGACTGAGG, 0.956 ± 0.026; that for GCTACTGGCA, 1.003 ± 0.0077.
For AATATTTCGG, the switch fluorescence ratio came out at 0.99 ± 0.0092.
The result for TTTTATCAAT reads 1.003 ± 0.0076; that for TTTGATTTGC, 0.961 ± 0.042; that for TTTAAGATAT, 1.09 ± 0.074.
The result for GGGGTTATTA reads 0.992 ± 0.017; that for GGTGGTACTG, 1.01 ± 0.037; that for ATACGCGGGC, 1.27 ± 0.038.
The result for TCCTTTAGCC reads 1.23 ± 0.015; that for TCGTTAATTT, 1.014 ± 0.0029.
For the sequence TTTTTCCAT, the switch fluorescence ratio was 1 ± 0.02.
Then AGGATTGGTT, with 1 ± 0.025; and GCGAGTGTCC, with 0.99 ± 0.019.
For TGCTGGGGAT, the switch fluorescence ratio was 1.009 ± 0.0015.
As to CGTTTTACCG, the switch fluorescence ratio was determined as 1.02 ± 0.032.
Then AAGGGAGAGA, with 1.02 ± 0.011.
Then GGGATTTTCC, with 0.979 ± 0.044; and CAGTACGGTT, with 1 ± 0.037; and CGGGAGGGTG, with 1.04 ± 0.038.
The result for CGCTTTAGGT reads 1.02 ± 0.012; that for TATATGGCGA, 0.995 ± 0.031.
As to AGCAGGTGTG, the switch fluorescence ratio stood at 1.18 ± 0.048.
Then CGAGTATCTA, with 0.993 ± 0.029; and AGTTGAAGGG, with 0.973 ± 0.018; and GTGTCAAAGA, with 0.984 ± 0.02.
Then GCTTCAGGGG, with 1.09 ± 0.12.
The result for ATGGTGGCCG reads 0.997 ± 0.026; that for TTGAGGGTAT, 0.998 ± 0.023; that for TATTTTTCGG, 0.984 ± 0.041.
With CAGGGTGTTG, the switch fluorescence ratio was determined as 0.964 ± 0.041.
The result for TTTCTTTATC reads 0.974 ± 0.017; that for TTGTTGGGGA, 1 ± 0.019; that for CTGGGAACGG, 0.965 ± 0.052.
The result for CATAACTATT reads 0.989 ± 0.015; that for GGGGTGAAT, 1.01 ± 0.021; that for ATCTTAGTTT, 1 ± 0.025.
Turning to ACTGGGTTTG, the switch fluorescence ratio came to 1.001 ± 0.0043.
Then TATTAATAGA, with 0.999 ± 0.061.
Turning to GGATTTGAGG, the switch fluorescence ratio was determined as 1 ± 0.026.
With AAGCGTTGTA, the switch fluorescence ratio is 1.01 ± 0.02.
The result for GACGAAAAGG reads 1.75 ± 1.1; that for TGCTTTCATG, 1.01 ± 0.027; that for TGTTAAAATT, 0.969 ± 0.063.
The result for CGTGGGGATC reads 1.06 ± 0.022.
As to TTTAACGTCG, the switch fluorescence ratio stood at 1.035 ± 0.005.
The result for GCTTGGCTAT reads 0.989 ± 0.022; that for GCAGTGCGCC, 1.2 ± 0.05.
As to AAGTGCATGC, the switch fluorescence ratio was found to be 1.01 ± 0.11.
Then GTTTCGGGTT, with 0.986 ± 0.019.
